From patent US20130130288A1 (published 2013)

Assays:
[1] = target: T1, amyloid β-derived diffusible ligands (ADDLs), oligomers of Aβ1-42; experiment: competitive ELISA
T1 construct: number of copies not defined; also called Aβ oligomers; Aβ oligomer

[2] = target: T1, amyloid β-derived diffusible ligands …; experiment: BIACORE (SPR)
Aβ1-40 monomer [3] = target: T2, Aβ1-40 monomer; experiment: BIACORE (SPR)
T2 construct: also called Aβ40 monomer; monomer Aβ

[4] = target: T1, amyloid β-derived diffusible ligands …; experiment: ELISA, IgG2 antibodies
[5] = target: T1, amyloid β-derived diffusible ligands …; experiment: KINEXA, equilibrium constant in solution
Aβ1-40 monomer [6] = target: T2, Aβ1-40 monomer; experiment: KINEXA, equilibrium constant in solution
[7] = target: T1, amyloid β-derived diffusible ligands …; experiment: one-sided ELISA on coated Aβ oligomers or Aβ1-40
[8] = target: T1, amyloid β-derived diffusible ligands …; experiment: KINEXA; constant for Aβ1-40 over constant for ADDLs
[9] = target: T1, amyloid β-derived diffusible ligands …; experiment: competitive ELISA, ratio of the two competition EC50 values
[10] = target: T1, amyloid β-derived diffusible ligands …; experiment: BIACORE (SPR); affinity for Aβ1-40 over affinity for ADDLs
[11] = target: T1, amyloid β-derived diffusible ligands …; experiment: ERENNA sandwich immunoassay, 19.3 capture, labelled 82E1 detection
Aβ1-40 monomer [12] = target: T2, Aβ1-40 monomer; experiment: ELISA on coated antigen, chemiluminescence; antibody at 0 timepoint
[13] = target: T1, amyloid β-derived diffusible ligands …; experiment: sandwich ELISA, 19.3 capture and 82E1 detection, luminescence (ENVISION)
Aβ1-40 monomer [14] = target: T2, Aβ1-40 monomer; experiment: one-sided ELISA, plate coated with 100 pmol/well Aβ1-40, chemiluminescence
Aβ1-40 monomer [15] = target: T2, Aβ1-40 monomer; experiment: ELISA on coated antigen, chemiluminescence; antibody stored 1 month at 4°
Aβ1-40 monomer [16] = target: T2, Aβ1-40 monomer; experiment: ELISA on coated antigen, chemiluminescence; antibody stored 1 month at 25°
Aβ1-40 monomer [17] = target: T2, Aβ1-40 monomer; experiment: ELISA on coated antigen, chemiluminescence; antibody stored 1 month at 40°
[18] = target: T1, amyloid β-derived diffusible ligands …; experiment: one-sided ELISA, plate coated with 50 pmol/well Aβ oligomers, chemiluminescence
[19] = target: T1, amyloid β-derived diffusible ligands …; experiment: … bead-based immunoassay; signal at 0.2 pM ADDLs greater than at 1000 pM Aβ1-40
[20] = target: T1, amyloid β-derived diffusible ligands …; experiment: three-pronged Aβ ELISA (M90/1 polyclonal capture); ratio of binding to ADDLs over fibrillar Aβ
[21] = target: T1, amyloid β-derived diffusible ligands …; experiment: three-pronged Aβ ELISA (M90/1 polyclonal capture); ratio of binding to ADDLs over monomeric Aβ

Binder	EC50 (Aβ1-40 monomer [12]) [nM]	EC50 (Aβ1-40 monomer [15]) [nM]	EC50 (Aβ1-40 monomer [17]) [nM]	ADDL:Fibrillar [20] [ratio]	ADDL:Monomer [21] [ratio]	also measured
anti-ADDL antibody 19.3 (antibody, V domains shown) VH: EVQLVESGGGLVQPGGSLRLSCAASGFTFSSFGMHWVRQAPGKGLEWVAYISRGSSTIYYADTVKGRFTISRDNAKNSLYLQMNSLRAEDTAVYYCARGITTALDYWGQGTLVTVSS VL: DVVMTQSPLSLPVTPGEPASISCRSSQSIVHSNGNTYLEWYLQKPGQSPQLLIYKASNRFSGVPDRFSGSGSGTDFTLKISRVEAEDVGVYYCFQGSRLGPSFGQGTKLEIKR	10.1	16.3	88.8	2	2.5	fold higher concentration of Aβ1-40 needed to displace 50% of 19.3 from Aβ oligomers than of Aβ oligomers to displace 19.3 from Aβ1-40 [1]: ~600 fold; Kd [2]: 4.8 nM; Kd (Aβ1-40 monomer [3]): 150 nM; EC50 [4]: 0.8 nM; Kd [5]: 2.7 nM; Kd (Aβ1-40 monomer [6]): 16.7 nM; fold greater potency for Aβ oligomers as compared to Aβ40 monomer [7]: ~3.7 fold; Ratio (Aβ monomer/ADDL) [8]: ~6.2 ratio; affinity for Aβ1-42 oligomers compared to Aβ1-40 monomers [9]: ~630 ratio; Ratio (Aβ monomer/ADDL) [10]: ~31 ratio; fold selectivity of the assay for Aβ oligomers over Aβ 40 monomer [11]: 5000 fold; fold selectivity for Aβ oligomer signal as compared to Aβ40 monomers [13]: ~1000 fold; EC50 (Aβ1-40 monomer [14]): ~4.3 nM; EC50 (Aβ1-40 monomer [16]): 22.1 nM; EC50 [18]: ~1.6 nM; ADDL versus monomeric Aβ selectivity [19]: ~5000 fold
19.3 N33T (antibody, V domains shown) VH: EVQLVESGGGLVQPGGSLRLSCAASGFTFSSFGMHWVRQAPGKGLEWVAYISRGSSTIYYADTVKGRFTISRDNAKNSLYLQMNSLRAEDTAVYYCARGITTALDYWGQGTLVTVSS VL: DVVMTQSPLSLPVTPGEPASISCRSSQSIVHSTGNTYLEWYLQKPGQSPQLLIYKASNRFSGVPDRFSGSGSGTDFTLKISRVEAEDVGVYYCFQGSRLGPSFGQGTKLEIL	332	307	96.3	–	–	–
19.3 N33S (antibody, V domains shown) VH: EVQLVESGGGLVQPGGSLRLSCAASGFTFSSFGMHWVRQAPGKGLEWVAYISRGSSTIYYADTVKGRFTISRDNAKNSLYLQMNSLRAEDTAVYYCARGITTALDYWGQGTLVTVSS VL: DVVMTQSPLSLPVTPGEPASISCRSSQSIVHSSGNTYLEWYLQKPGQSPQLLIYKASNRFSGVPDRFSGSGSGTDFTLKISRVEAEDVGVYYCFQGSRLGPSFGQGTKLEIL	55.1	59.1	29.9	–	–	EC50 (Aβ1-40 monomer [16]): 24.3 nM
anti-ADDL antibody 14.2 (antibody, V domains shown) VH: EVQLVESGGGLVQPGGSLRLSCAASGFTFSSFGMHWVRQAPGKGLEWVAYISRGSSTIYYADTVKGRFTISRDNAKNSLYLQMNSLRAEDTAVYYCARGITTALDYWGQGTLVTVSS VL: DVVMTQSPLSLPVTPGEPASISCRSSQSIVHSNGNTYLEWYLQKPGQSPQLLIYKASNRFSGVPDRFSGSGSGTDFTLKISRVEAEDVGVYYCFQGSRVPPGFGQGTKLEIKR	–	–	–	–	4.2	–
anti-ADDL antibody 11.4 (antibody, V domains shown) VH: EVQLVESGGGLVQPGGSLRLSCAASGFTFSSFGMHWVRQAPGKGLEWVAYISRGSSTIYYADTVKGRFTISRDNAKNSLYLQMNSLRAEDTAVYYCARGITTALDYWGQGTLVTVSS VL: DVVMTQSPLSLPVTPGEPASISCRSSQSIVHSNGNTYLEWYLQKPGQSPQLLIYKASNRFSGVPDRFSGSGSGTDFTLKISRVEAEDVGVYYCFQGSRVPVRFGQGTKLEIKR	–	–	–	2.4	2.4	–
anti-ADDL antibody 13.1 (antibody, V domains shown) VH: EVQLVESGGGLVQPGGSLRLSCAASGFTFSSFGMHWVRQAPGKGLEWVAYISRGSSTIYYADTVKGRFTISRDNAKNSLYLQMNSLRAEDTAVYYCARGITTALDYWGQGTLVTVSS VL: DVVMTQSPLSLPVTPGEPASISCRSSQSIVHSNGNTYLEWYLQKPGQSPQLLIYKASNRFSGVPDRFSGSGSGTDFTLKISRVEAEDVGVYYCFQGSKAHPSFGQGTKLEIKR	–	–	–	2	2.4	–
anti-ADDL antibody 17.1 (antibody, V domains shown) VH: EVQLVESGGGLVQPGGSLRLSCAASGFTFSSFGMHWVRQAPGKGLEWVAYISRGSSTIYYADTVKGRFTISRDNAKNSLYLQMNSLRAEDTAVYYCARGITTALDYWGQGTLVTVSS VL: DVVMTQSPLSLPVTPGEPASISCRSSQSIVHSNGNTYLEWYLQKPGQSPQLLIYKASNRFSGVPDRFSGSGSGTDFTLKISRVEAEDVGVYYCFQGSRVPASFGQGTKLEIKR	–	–	–	2.1	3.2	–
